Measured values as given in patent US20160193299A1, “MODIFIED NUCLEOSIDE, NUCLEOTIDE, AND NUCLEIC ACID COMPOSITIONS” (Moderna Therapeutics, Inc., priority 2011, published 2016).

Assays:
Assay type in all cases: in vivo, cynomolgus monkey
[1] = tested on: hemoglobin (HGB); assay: Example 22 non-human primate study, hemoglobin (HGB)
Method: (§1) LNP formulations, shown in Table 31 (above), were administered to non-human primates (NHP) (cynomolgus monkey) (n=2) as intravenous injection (IV). The NHP were administered a single modified mRNA IV dose of 0.5 mg/kg, 0.05 mg/kg or 0.005 mg/kg of G-CSF or EPO in a dose volume of 0.5 mL/kg. The NHPs were bled before dosing with the modified mRNA LNP formulations to determine protein expression in the serum and a baseline complete blood count. After administration with the G-CSF modified mRNA formulation the NHP were bled at 8, 24, 48 and 72 hours to determined protein expression. After administration with the EPO modified mRNA formulation the NHP were bled at 8, 24, 48, 72 hours and 7 days to determined protein expression.

[2] = tested on: aspartate transaminase (AST); assay: Example 22 non-human primate study, serum chemistry aspartate transaminase (AST)
Method: as §1

[3] = tested on: red blood cell (RBC); assay: Example 22 non-human primate study, red blood cell (RBC) count; conditions: Female NHP
Method: as §1

[4] = Female NHP, 0.005 mg/kg, 7 days
[5] = Female NHP, 0.005 mg/kg, Pre-dose
[6] = Female NHP, 0.05 mg/kg, Pre-dose
[7] = Female NHP, 0.5 mg/kg, Pre-dose
[8] = Male NHP, 0.005 mg/kg, Pre-dose

B1: G-CSF: human G-CSF mRNA SEQ ID NO: 6, polyA ~160 nt, Cap1, fully modified with 5-methylcytosine and pseudouridine (nucleic acid, listed as Homo sapiens)
chain: GGGAAAUAAGAGAGAAAAGAAGAGUAAGAAGAAAUAUAAGAGCCACCAUGGCCGGUCCCGCGACCCAAAGCCCCAUGAAACUUAUGGCCCUGCAGUUGCUGCUUUGGCACUCGGCCCUCUGGACAGUCCAAGAAGCGACUCCUCUCGGACCUGCCUCAUCGUUGCCGCAGUCAUUCCUUUUGAAGUGUCUGGAGCAGGUGCGAAAGAUUCAGGGCGAUGGAGCCGCACUCCAAGAGAAGCUCUGCGCGACAUACAAACUUUGCCAUCCCGAGGAGCUCGUACUGCUCGGGCACAGCUUGGGGAUUCCCUGGGCUCCUCUCUCGUCCUGUCCGUCGCAGGCUUUGCAGUUGGCAGGGUGCCUUUCCCAGCUCCACUCCGGUUUGUUCUUGUAUCAGGGACUGCUGCAAGCCCUUGAGGGAAUCUCGCCAGAAUUGGGCCCGACGCUGGACACGUUGCAGCUCGACGUGGCGGAUUUCGCAACAACCAUCUGGCAGCAGAUGGAGGAACUGGGGAUGGCACCCGCGCUGCAGCCCACGCAGGGGGCAAUGCCGGCCUUUGCGUCCGCGUUUCAGCGCAGGGCGGGUGGAGUCCUCGUAGCGAGCCACCUUCAAUCAUUUUUGGAAGUCUCGUACCGGGUGCUGAGACAUCUUGCGCAGCCGUGAAGCGCUGCCUUCUGCGGGGCUUGCCUUCUGGCCAUGCCCUUCUUCUCUCCCUUGCACCUGUACCUCUUGGUCUUUGAAUAAAGCCUGAGUAGGAAG
modifications: polyA ~160, Cap1, 5mC/pseudouridine modified
HGB ([1]; Female NHP, 0.005 mg/kg, 14/18 days): 129 g/L | HGB ([1]; Female NHP, 0.005 mg/kg, 24 hours): 127 g/L | HGB ([1]; Female NHP, 0.005 mg/kg, 3 days): 127 g/L | HGB [1, 4]: 129 g/L | HGB [1, 5]: 129 g/L | HGB ([1]; Female NHP, 0.05 mg/kg, 14/18 days): 123 g/L | HGB ([1]; Female NHP, 0.05 mg/kg, 24 hours): 117 g/L | HGB ([1]; Female NHP, 0.05 mg/kg, 3 days): 115 g/L | HGB ([1]; Female NHP, 0.05 mg/kg, 7 days): 116 g/L | HGB [1, 6]: 129 g/L | HGB ([1]; Female NHP, 0.5 mg/kg, 14/18 days): 113 g/L | HGB ([1]; Female NHP, 0.5 mg/kg, 24 hours): 112 g/L | HGB ([1]; Female NHP, 0.5 mg/kg, 3 days): 114 g/L | HGB ([1]; Female NHP, 0.5 mg/kg, 7 days): 116 g/L | HGB [1, 7]: 129 g/L | HGB ([1]; Male NHP, 0.005 mg/kg, 14/18 days): 118 g/L | HGB ([1]; Male NHP, 0.005 mg/kg, 24 hours): 117 g/L | HGB ([1]; Male NHP, 0.005 mg/kg, 3 days): 116 g/L | HGB ([1]; Male NHP, 0.005 mg/kg, 7 days): 116 g/L | HGB [1, 8]: 128 g/L | HGB ([1]; Male NHP, 0.05 mg/kg, 14/18 days): 134 g/L | HGB ([1]; Male NHP, 0.05 mg/kg, 24 hours): 122 g/L | HGB ([1]; Male NHP, 0.05 mg/kg, 3 days): 126 g/L | HGB ([1]; Male NHP, 0.05 mg/kg, 7 days): 126 g/L | HGB ([1]; Male NHP, 0.05 mg/kg, Pre-dose): 137 g/L | HGB ([1]; Male NHP, 0.5 mg/kg, 14/18 days): 98 g/L | HGB ([1]; Male NHP, 0.5 mg/kg, 24 hours): 113 g/L | HGB ([1]; Male NHP, 0.5 mg/kg, 3 days): 118 g/L | HGB ([1]; Male NHP, 0.5 mg/kg, 7 days): 115 g/L | HGB ([1]; Male NHP, 0.5 mg/kg, Pre-dose): 133 g/L | AST ([2]; Female NHP, 0.005 mg/kg, 2 days): 34 U/L | AST ([2]; Female NHP, 0.005 mg/kg, 4 days): 36 U/L | AST [2, 4]: 31 U/L | AST ([2]; Female NHP, 0.005 mg/kg, 14 days): 20 U/L | AST [2, 5]: 54 U/L | AST ([2]; Female NHP, 0.05 mg/kg, 2 days): 34 U/L | AST ([2]; Female NHP, 0.05 mg/kg, 4 days): 42 U/L | AST ([2]; Female NHP, 0.05 mg/kg, 7 days): 52 U/L | AST ([2]; Female NHP, 0.05 mg/kg, 14 days): 20 U/L | AST [2, 6]: 33 U/L | AST ([2]; Female NHP, 0.5 mg/kg, 2 days): 294 U/L | AST ([2]; Female NHP, 0.5 mg/kg, 4 days): 63 U/L | AST ([2]; Female NHP, 0.5 mg/kg, 7 days): 68 U/L | AST ([2]; Female NHP, 0.5 mg/kg, 14 days): 67 U/L | AST [2, 7]: 47 U/L | AST ([2]; Male NHP, 0.005 mg/kg, 2 days): 70 U/L | AST ([2]; Male NHP, 0.005 mg/kg, 4 days): 39 U/L | AST ([2]; Male NHP, 0.005 mg/kg, 7 days): 28 U/L | AST ([2]; Male NHP, 0.005 mg/kg, 14 days): 39 U/L | AST [2, 8]: 35 U/L | AST ([2]; Male NHP, 0.05 mg/kg, 2 days): 95 U/L | AST ([2]; Male NHP, 0.05 mg/kg, 4 days): 69 U/L | AST ([2]; Male NHP, 0.05 mg/kg, 7 days): 62 U/L | AST ([2]; Male NHP, 0.05 mg/kg, 14 days): 59 U/L | AST ([2]; Male NHP, 0.05 mg/kg, Pre-dose): 99 U/L | AST ([2]; Male NHP, 0.5 mg/kg, 2 days): 196 U/L | AST ([2]; Male NHP, 0.5 mg/kg, 4 days): 67 U/L | AST ([2]; Male NHP, 0.5 mg/kg, 7 days): 53 U/L | AST ([2]; Male NHP, 0.5 mg/kg, 14 days): 47 U/L | AST ([2]; Male NHP, 0.5 mg/kg, Pre-dose): 32 U/L | RBC ([3]; 0.005 mg/kg, 14/18 days): 5.34 10^12/L | RBC ([3]; 0.005 mg/kg, 24 hours): 5.35 10^12/L | RBC ([3]; 0.005 mg/kg, 3 days): 5.24 10^12/L | RBC ([3]; 0.005 mg/kg, 7 days): 5.34 10^12/L | RBC ([3]; 0.005 mg/kg, Pre-dose): 5.36 10^12/L | RBC ([3]; 0.05 mg/kg, 14/18 days): 5.26 10^12/L | RBC ([3]; 0.05 mg/kg, 24 hours): 5.08 10^12/L | RBC ([3]; 0.05 mg/kg, 3 days): 5.04 10^12/L | RBC ([3]; 0.05 mg/kg, 7 days): 5.05 10^12/L
